Among the data in a protein production outcome set (Wang et al. 2014) are protein production values, retold here.

The series in a line: label from the status in PepcDB records.
Take “MSDHPGSNAANPPPVPGAPALRTRRFNVSLVWLVPIVAALVGLSMVVHNSLSAGPEISISFQTAEGLEANKTQVKYKNVVIGKVTSIALSDDRKKVVAKVELDQSAEPFTADDSLFWVVRPRIGANGISGVDTLLSGAFIGADAGKSEKRKDSFKGLETPPPITYGQKGKRFTLHTDDLGSLDIGSPVYYRRIEVGQVVSYQLANSGKGVDVKIFVNSPNDKYVTTDTRFWNASGVDVTLGANGLKVNTESVSSILAGGIAFVEPKYSPNAKPADENAEYTLFGDQDTALAPPDGAPYYIRMRFDQALRGLSVNAPVEFLGVNIGKVVSMDLDYDEQRKYFPTLVGAVIYPERLGKAHEKLVKQTGGEDDVRSAKLIGAFVKNGLRAQPRSGNLLTGQLYISLDFVTNAKPVAYDATARPLEIPTVPGSMDKLQEQLQAVVDKISKLPIDSIAANLNGSLAEMQKTLKQVNGEVLPQMRDTLEQSKKTLASANESFSEDSPQRQKLGQAMEEVQRTARSVRVLSDFLGRHPEALIRGRLKDNQPDAYQSPSSSVRESVPEAQP”: the protein production entry is “failed”.

With “MSDICVIIAAYNAEATIAQAVTSALAEAEVAEVVVVDDASSDATAEAALAASDGSGRLIVERQAQNGGPSAARNRAVALSQAPRIAILDADDFFLPGRFARLDPDLDLAADNIVFVTPEHAARLDPTNLPAAPREVEMLDAERFALGNLAQGVHRGELGFLKPVMSRAFLTRHGLRYDERMWLGEDFDLYMRMLLLGARFGLTRAVGYAAVQRGASLSGRHRTADLAALEACCRAHLEMPASPATQEAMRRHLRQVQAKLLLRQFLDRKAEAGLGAALGFALAPPARFLPIAKGVARDKIAALRPPAPPRAERFLLPVLEHHHHHH”, the protein production entry is recorded as “failed”.

Turning to “MSDIHKKIKKKQFAPLYLLYGTEAFFINETIKLITTEALEEEDREFNVVTYDLEEAYLEDVVEDARTLPFFGERKVLLIKSPLFLTSQKEKLEQNIKILEEYIGEPSPFSILVFVAPYEKLDERKKITKLLKKTADIVEANAMQVQDVQKWIVARAEEGHVHIDNAAVSLLLELVGSNVTMLAKEMDKLTLYVGMGGEITPKLVAELVPKSVEQNVFALTEKVVKKDIAGAMQILDGLFTQQEEPIKLLALLVSQFRLLHQVKELQQRGYGQNQIASHIGVHPYRVKLAMNQTKFFSFEELKKVIIELAEADYSMKTGKMDKKLVLEFFLMRLNHM”, the protein production result is recorded as “failed”. To “MSDIIDEVISSFKTSSIFINREYLLPDYIPDELPHREDQIRKIASILAPLYREEKPNNIFIYGLTGTGKTAVVKFVLSKLHKKFLGKFKHVYINTRQIDTPYRVLADLLESLDVKVPFTGLSIAELYRRLVKAVRDYGSQVVIVLDEIDAFVKKYNDDILYKLSRINSEVNKSKISFIGITNDVKFVDLLDPRVKSSLSEEEIIFPPYNAEELEDILTKRAQMAFKPGVLPDNVIKLCAALAAREHGDARRALDLLRVSGEIAERMKDTKVKEEYVYMAKEEIERDRVRDIILTLPFHSKLVLMAVVSISSEENVVSTTGAVYETYLNICKKLGVEAVTQRRVSDIINELDMVGILTAKVVNRGRYGKTKEIGLAVDKNIIVRSLIESDSRFADLWS” belongs “failed”; to “MSDIIHLLPDSVANQIAAGEVIQRPASVIKELVENAIDADAQNIHVLVTDAGKTCIQIIDDGKGMSETDARLSFERHATSKIREAADLFALRTMGFRGEALASIAAVAQVELKTRLESEELGTKLVIAGSKVESQEAVSCSKGSNFSVKNLFFNVPARRKFLKANSTELSNILAEFERIALVHPEVAFSLYSNDSELFNLPVSPLRQRILAIFGKKLNQQLLNIEVNTTMVKISGYIAKPETARKKGAHQYFFVNGRYMRHPYFHKAVMEAYEQLIPVGEQVSYFIYFEVDPANIDVNIHPTKTEIKFENEQAIWQILSASVKESLGKFSAIPSIDFDTEDMPDIPAFEQNLPPAPPKIHYNSDFNPFKVSSGGSGGGSYSRPKVEWEGLYGGLTKASKMNEPQQEPEMDWENSPFEEEPMVAEEKTISAVSAASSTFSSASSTLYANESVIEKGNLHLQFKGRFILTSVKSGLMLIDQHRAHIRVLFDRYMVQIKQKQGVSQGVLFPEILQLPASEAAVLQGIMDDLSAVGFDLSDLGGGSYAINGIPSGIEGLNPVELVRNMLHTAMEKGNDVKEEIQNILALTLARAAAIVYGQVLSNEEMVSLVDSLFACPSPNYTPDGKTVLTTIKEEDIEKLFK”, “failed”.

With “MSDILYSLLISAFLGLAHGLDADHIANVRIFKSVKKIFEFSLFHSAGFLIIAIPLSLLSLVTILEFPLLITSYSIGLLVSGLLLYGTVKGKELEIEPKRFGLLQGALVISPSKLIVLILALASESIFYAVLILLVFIVTSIISFMIFSLLNLIPKRFDKIVNIVISLGSIIYILYELITTLMSMH”, the protein production result is listed as “failed”. The value for “MSDKYYRSAYMNVDLNAVASNFKVFSTLHPNKTVMAVVKANAYGLGSVKVARHLMENGATFFAVATLDEAIELRMHGITAKILVLGVLPAKDIDKAIQHRVALTVPSKQWLKEAIKNISGEQEKKLWLHIKLDTGMGRLGIKDTKTYQEVIEIIQQYEQLVFEGVFTHFACADEPGDMTTEQYQRFKDMVNEAIKPEYIHCQNSAGSLLMDCQFCNAIRPGISLYGYYPSEYVQQKVKVHLKPSVQLIANVVQTKTLQAGESVSYGATYTATDPTTIALLPIGYADGYLRIMQGSFVNVNGHQCEVIGRVCMDQTIVKVPDQVKAGDSVILIDNHRESPQSVEVVAEKQHTINYEVLCNLSRRLPRIYHDGDQRFVTNELLK” was “not failed”. The value for “MSDLKSLATKFASDHESGKLLVLPTVWDTWSAGLVEEAGFSGLTIGSHPVADATGSSDGENMNFADYMAVVKKITSAVSIPVSVDVESGYGLSPADLIAQILEAGAVGINVEDVVHSEGKRVREAQEHADYIAAARQAADVAGVDVVINGRTDAVKLGADVFEDPMVEAIKRIKLMEQAGARSVYPVGLSTAEQVERLVDAVSVPVNITAHPVDGHGAGDLATLAGLGVRRVTFGPLWQKWLAATSAQQLKGWA” was “not failed”; that for “MSDLTKVFIAPEEIVNFLKKNMQLKEVYQKILFQRLILQVAEARGITVTTEEIEAEANRQRREKRLEKAADTMAWLADQLASPEDWEMGIRDRLLSQKLANFLFADKVEAFFIQNQLEFEQVSLYQIIVDSEKLAQEIYYQIEDEEISFYEAAYLYDVDAVRRQRCGYEGKVYRFSLPVNVATVIFRTSPKQLISPLQTEQGYHLFMVEEFIPAELTGERYQEILNNMFNQWLITELNKILN” was “failed”. To “MSDNNDRMYELEYPSPEVSGQTAGGPTLIVALQGYADAGHAVESSSSHLMDALDHRLIASFNNDELIDYRSRRPVVVIEHNEVTSMDELNLGLHVVRDNDNKPFLMLSGPEPDLRWGDFSNAVVDLVEKFGVENTICLYAAPMTVPHTRPTVVTAHGNSTDRLKDQVSLDTRMTVPGSASLMLEKLLKDKGKNVSGYTVHVPHYVSASPYPAATLKLLQSIADSADLNLPLLALERDAEKVHRQLMEQTEESSEIQRVVGALEQQYDSELERYRNRHPQAVMPGESELPSGDEIGAEFEKFLADLDDQGGSDHKETPEA” belongs “not failed”; to “MSDPITLNVGGKLYTTSLATLTSFPDSMLGAMFSGKMPTKRDSQGNCFIDRDGKVFRYILNFLRTSHLDLPEDFQEMGLLRREADFYQVQPLIEALQEKEVELSKAEKNAMLNITLNQRVQTVHFTVREAPQIYSLSSSSMEVFNANIFSTSCLFLKLLGSKLFYCSNGNLSSITSHLQDPNHLTLDWVANVEGLPEEEYTKQNLKRLWVVPANKQINSFQVFVEEVLKIALSDGFCIDSSHPHALDFMNNKIIRLIRYR”, “failed”. For “MSDPVSYTRKDSIAVISMDDGKVNALGPAMQQALNAAIDNADRDDVGALVITGNGRVFSGGFDLKILTSGEVQPAIDMLRGGFELAYRLLSYPKPVVMACTGHAIAMGAFLLSCGDHRVAAHAYNIQANEVAIGMTIPYAALEIMKLRLTRSAYQQATGLAKTFFGETALAAGFIDEIALPEVVVSRAEEAAREFAGLNQHAHAATKLRSRADALTAIRAGIDGIAAEFGL”, the protein production result was “not failed”.

For “MSDRLANQIAAGEVVQRPASVAKELIENALDAGASSIEVLLKDAGSTLVQVIDDGCGMGPGDAERCFERHATSKLRSVDDLERIRTLGFRGEALASIAAVAQVTLKTKRVEDDAGTLVRVEGGEQVEKRPCAIPNGTSVAVRNLFFNVPARRNFLKTPATELKHLTQTVQSLALANPDTAVRLEHDGHEHYDLPAAPDSDWHAATRARILGLFGGDHEDELVAVEDESSDLRLRGFVGAPSFHRKTRGEQFLFVNGRAVTDRYLSHAVKKAYGELVPDGAFPFFALFLAMNPERVDVNVHPQKEEVKFDDQSGIYGFLRSAVRRALGRVHVSPQMDDGDDEADNEEDSPGPESDGTGSGGHAVSGDGTSSPRPTPTSFQPQRSSGDATDSSGRSSSGPSPQSPKPRPENPSVSPGDQSDALYRRPDGGDESSPGDAPASPPHREGGSSSTSAADEAERSGRRPVWGLHDTYVVTPTETGMMLVDQRAAHLRVLYERARAHLRDQQGASQRLLFPHTVDLSPAEVELLDELRDDLDALGFELERLSGRTVSVRGVPADVPDGNEDTILEELLEQYRSAQDAVEDERREHLAKTMAQRSAVDRGQPLSEEERRALLDDLFDCEMPYADPTGTPTIVKLSMEELADRFGR”, the protein production result is on record as “failed”. To “MSDRRAPLVLEVDGVRHPLTPPGLTIGRGSDADIRINDPGISRLHARINVWPQGNDIGLSIEDLDSTNGVTVNGVKVTSTELGDGSRIEIGSTRMLVHSPTRILEHHHHHH” belongs “failed”; to “MSDSGRADALLAELPRDGRGRLKVFLGAAPGVGKTYAMLQAAHSQLRQGVKVLAGVVETHGRAETEALLSGLPQQPLVRSEYRGVLLEEMDLDGLLKAKPKLVLVDELAHSNAPGSRHAKRWQDIQELLAAGIDVFTTVNVQHLESLNDQVRGITGVQVRETLPDWVLQEAYELLLVDLPPRELLERLRDGKVYVPEQARAAIDAFFTQTNLTALRELAMQTAAAQVDNDLAQGYRQLGQAAPAVRGRLLVGIDGDAQAERLVRHASRVAQRRHLPWSLVHVDNGRLRDEQARLRLQAAQQLAERLGGEVVLLRAGEVAKTLIQHAAERRASLLLVGQSRRRWRRRWFGGGLAARLLRNADGLEINVLDSEPQPHQPGLRVKHSLIWFDYVLAVLATLLASALAWGVASVLPLPNISLVFLAAVLLVAVRSSLGPALACAALSFLSYDFLFIPPNFSLAIQREEDVLTLLFFLLMAALTGNLAARQRRQLQALRDTQEETGELLDLSRKLTAATDRQAVISAAAQHLNGRDELRVCLINRDGQGGWKVETGGSPQFSEAERAAADWAWQHDQPAGLGTGTLPFGRWWWWPLSVDDGPLGLLGVCPREGEEFSGQRRRLLTALSQPLAQALARARLAEDLEAARLHGETEQLRSALLASVSHDLRTPLTSMRGSIDSLLALGEAIPLEDRRELLEGTRDEAERLDRYIQNLLDMTRLGHGALKLARDWVAPGDIVGSALNRLRAVLAPLQVATELPADLPLLYVHAALIEQALVNVLENAARFSPLQGHLQLKVSASEQELSFAVSDEGPGIPEDERAKIFDMFYTAARGDRGGQGTGLGLAICQGMVGAHGGHISVAEGIGGKGTCITLHLPLQTQPELESDL”, “failed”.

On to “MSDSLRIIFAGTPDFAARHLGALLSSQHKIVGVFTQPDRPAGRGNKLTPSPVKILAEHHGIPVFQPKSLRPEENQHLVADLNADIMVVVAYGLILPAAVLAMPRLGCINVHGSLLPRWRGAAPIQRSVWAGDEKTGITIMQMDIGLDTGAMLHKIECAIQPEDTSATLYDKLAQLGPQGLLITLQQLAAGTALAEVQNETQATYAEKLSKEEAKLDWTLSATQLERCIRAFNPWPVSYFIVDEQPIKVWQAQVLPAGEDAEPGTIIHADKHGIQVATADGVLNITQLQPAGKKAMSAADLLNSRREWFIPGSQLV”, for which the protein production result is reported as “not failed”. The value for “MSDSPRPSSRPDFWDVRYERDRHLFGAEPNAFVKAEAHRLPPESEVVEVGAGEGRTAAWLAREHGHRVTAVDFSETALKTAQERAEAEHLRLDTVRADVRTWRPDRQWDAAVVTFLQLLPDERPRLYRLLKNSVRSGGWLLAEWLRPAHLTGPYDRMGPSRADRMVPVDEVRRAFADEHLASVEAVDVHLQEGPHLTGDAAVVRGIVQAGAS” was “failed”.
